# Values quoted from earlier work in US20060122098A1, “System for infusing insulin to a subject to imporve impaired total body tissue glucose processing” (priority 2004, published 2006).
# Conditions: in vivo
substance,measurement,value
insulin,half-life,5 min
